Laboratory results from paper PMC7925532.

Molecular target: EGFR Kinase Domain Duplication (EGFR-KDD), eGFP or mCherry fusion (human) (UniProt P00533)
Assay: PIE-FCCS (pulsed interleaved excitation fluorescence cross-correlation spectroscopy); live COS-7 cells co-expressing eGFP and mCherry fusions (1:1 plasmids), peripheral membrane, 37 °C, Opti-MEM; stimulated with 2 μg/mL recombinant human EGF; median fraction correlated (ƒc)

median cross-correlation value (ƒc): 0.17
Substance: EGFR Kinase Domain Duplication (EGFR-KDD), eGFP or mCherry fusion (from UniProt P00533 25-1038; P00533 688-1210) (receptor)
